Measurements: PMC10938568

Molecular target: GST-PreScission-p62 FIR 4P (human) (UniProt Q13501)
Experiment: SPR

Q: Which Kd estimated from the kinetics does the source give for “His8-TEV-LC3B (1 to 125) (from UniProt Q9GZQ8 1-120) (natural protein)” here?
A: 80 nM

Q: What about the half-life of the same substance?
A: 20 min
